PMC10876215, “Nucleosome conformation dictates the histone code” (eLife, 2024)

Legend:
[1] = biological target: H3K4me3K9acK14acK18ac histone peptide (dCypher, biotinylated); experiment: AlphaScreen or HTRF; dCypher on the Alpha platform; biotinylated histone peptide (100 nM final) on streptavidin donor beads, 6His-tagged Query titrated and held on Ni-NTA acceptor beads; 50 mM Tris pH 7.5, 50 mM NaCl, 0.01% Tween-20, 0.01% BSA, 0.0004% Poly-L Lysine, 1 mM TCEP; room temperature; relative EC50 (EC50^rel)
[2] = biological target: H4K5acK8acK12acK16ac histone peptide (dCypher, biotinylated); experiment: AlphaScreen or HTRF; dCypher on the Alpha platform; biotinylated histone peptide (100 nM final) on streptavidin donor beads, GST-tagged Query titrated and held on glutathione acceptor beads; 50 mM Tris pH 7.5, 50 mM NaCl, 0.01% Tween-20, 0.01% BSA, 0.0004% Poly-L Lysine, 1 mM TCEP; room temperature; relative EC50 (EC50^rel), not an equilibrium Kd

Substance	fold weaker than for the H3K4me3 peptide [1]	EC50 [2]
BPTF 6His-PHD (domain or fragment)	2 fold	
GST-BRD4-BD1 (domain or fragment)		0.7 nM
